Measured values as given in the Human Domainome abundance scans (Beltran et al. 2025).
± gives the uncertainty stated by the source.

B1: E3 ubiquitin-protein ligase TRIM36, residues 208 to 252; numbered along this chain, Q9NQ86 (parent)
chain: KILMCPEHETERINMYCELCRRPVCHLCKLGGNHANHRVTTMSSA

Variants of: B1
Assay: abundance fitness (aPCA) (normalised: wild type 0, dead -1); higher = more abundant; growth selection in yeast, the domain comes from the species named
Details: Homo sapiens

Variant	abundance fitness
KILMCPEHETERINMYCELCRRPVCHLKKLGGNHANHRVTTMSSA [C28K]	-0.592 ± 0.13
KILMCPEHETERINMYCELCRRPVCHFCKLGGNHANHRVTTMSSA [L27F]	-0.182 ± 0.083
KILMCPEHETERINMYCDLCRRPVCHLCKLGGNHANHRVTTMSSA [E18D]	0.116 ± 0.083
KILMCPEHETEPINMYCELCRRPVCHLCKLGGNHANHRVTTMSSA [R12P]	0.186 ± 0.12
KILMCPEHETERINMYCELCRRPVCHLCKLGGNHANHRVTEMSSA [T41E]	0.071 ± 0.058
KILMCPEHETERINMYCELCRRPVCHLCKLGQNHANHRVTTMSSA [G32Q]	-0.036 ± 0.061
KILMCPEHETVRINMYCELCRRPVCHLCKLGGNHANHRVTTMSSA [E11V]	-0.126 ± 0.077
KILMCPEHETERINMYCELCRRPVCGLCKLGGNHANHRVTTMSSA [H26G]	0.049 ± 0.058
KILMCMEHETERINMYCELCRRPVCHLCKLGGNHANHRVTTMSSA [P6M]	-0.224 ± 0.066
KILMCPEHETERINMYCTLCRRPVCHLCKLGGNHANHRVTTMSSA [E18T]	-0.147 ± 0.06
KILMCPEHETERINMYCELCRRPVCHLCKLGGNHANHRVTTKSSA [M42K]	0.079 ± 0.06
KILMCPEHETERINMYCELCRRPVCHLCKLGGHHANHRVTTMSSA [N33H]	-0.046 ± 0.071
KILMCPEHETERIEMYCELCRRPVCHLCKLGGNHANHRVTTMSSA [N14E]	0.048 ± 0.095
KILMCPEHETERINMYCELCRRPVCHLCKLGGLHANHRVTTMSSA [N33L]	-0.028 ± 0.048
KILMCPEHETERINMYCELCRRPVCHLDKLGGNHANHRVTTMSSA [C28D]	0.302 ± 0.27
KILMCPEHETERINMYCELCRRPVCHLCKLGGNAANHRVTTMSSA [H34A]	-0.334 ± 0.05
KILMCPEHETERINMGCELCRRPVCHLCKLGGNHANHRVTTMSSA [Y16G]	-0.478 ± 0.11
KILMCPCHETERINMYCELCRRPVCHLCKLGGNHANHRVTTMSSA [E7C]	-0.209 ± 0.067
KILMCPEHETERINMYCELCRRPVCHLQKLGGNHANHRVTTMSSA [C28Q]	-0.399 ± 0.068

Variant	abundance fitness
KILMCPEHETERIAMYCELCRRPVCHLCKLGGNHANHRVTTMSSA [N14A]	-0.037 ± 0.077
KILMCPEHETERINMYCELCRRPVCHLCKLGGNHANHRVTGMSSA [T41G]	0.003 ± 0.043
KILMCPEHETERINMYCELCRRPVCHSCKLGGNHANHRVTTMSSA [L27S]	-0.003 ± 0.055
KILMCPEHEGERINMYCELCRRPVCHLCKLGGNHANHRVTTMSSA [T10G]	-0.071 ± 0.045
KILMCPEHETERINMSCELCRRPVCHLCKLGGNHANHRVTTMSSA [Y16S]	-0.135 ± 0.074
KILMDPEHETERINMYCELCRRPVCHLCKLGGNHANHRVTTMSSA [C5D]	-0.536 ± 0.092
RILMCPEHETERINMYCELCRRPVCHLCKLGGNHANHRVTTMSSA [K1R]	-0.28 ± 0.062
KHLMCPEHETERINMYCELCRRPVCHLCKLGGNHANHRVTTMSSA [I2H]	-0.139 ± 0.06
KILMCPEHETERINMYCELCRRPVCELCKLGGNHANHRVTTMSSA [H26E]	-0.022 ± 0.064
KILMCPEHERERINMYCELCRRPVCHLCKLGGNHANHRVTTMSSA [T10R]	-0.039 ± 0.049
KILMCPEHETERINMYCELCRRPVCYLCKLGGNHANHRVTTMSSA [H26Y]	0.343 ± 0.12
KILMCPEHETERINMYCSLCRRPVCHLCKLGGNHANHRVTTMSSA [E18S]	-0.148 ± 0.057
KILMCPEHETERINMYCELCRRPVNHLCKLGGNHANHRVTTMSSA [C25N]	-0.5 ± 0.21
KILMCPEHETERINMYCELCRRPVCHLCKLGGNHANHRVTTMSSC [A45C]	-0.482 ± 0.1
KILMCPEHHTERINMYCELCRRPVCHLCKLGGNHANHRVTTMSSA [E9H]	-0.069 ± 0.099
KILMCPEHETERINMYCELCRRPVCHLHKLGGNHANHRVTTMSSA [C28H]	-0.763 ± 0.16
KILMCPEHETERINMYCELCRRPVCHLCKLGGNHANHDVTTMSSA [R38D]	0.05 ± 0.069
KILMCPVHETERINMYCELCRRPVCHLCKLGGNHANHRVTTMSSA [E7V]	-0.011 ± 0.064
KILMCPEHETERINMYCPLCRRPVCHLCKLGGNHANHRVTTMSSA [E18P]	-0.269 ± 0.076

Variant	abundance fitness
KILMCPEHETERINMYCELCRRPVCHLCKGGGNHANHRVTTMSSA [L30G]	0.073 ± 0.051
KILMCPEHETERINMYCELCRRPVCHLCKLGGNHAGHRVTTMSSA [N36G]	-0.059 ± 0.053
KILMCPEHETERINMYCELCRRPVCHLCKKGGNHANHRVTTMSSA [L30K]	0.101 ± 0.065
KILMCPEHMTERINMYCELCRRPVCHLCKLGGNHANHRVTTMSSA [E9M]	-0.099 ± 0.065
KILMCPEHNTERINMYCELCRRPVCHLCKLGGNHANHRVTTMSSA [E9N]	-0.052 ± 0.088
KILMCPEHETESINMYCELCRRPVCHLCKLGGNHANHRVTTMSSA [R12S]	-0.38 ± 0.26
KILMCPEHETERINMYCELCRREVCHLCKLGGNHANHRVTTMSSA [P23E]	0.037 ± 0.063
KILMCPEHETERINMYCELCRRPVCHLCKLGGNHAVHRVTTMSSA [N36V]	-0.202 ± 0.052
KILMCPEHETERINMYCELCRRPVCHLCKLGGNHANHRQTTMSSA [V39Q]	0.008 ± 0.059
KILMCPEHETERINMYCELCRDPVCHLCKLGGNHANHRVTTMSSA [R22D]	-0.197 ± 0.11
KILMCPEHETERINMYCELCRRPVCHLCKLGGNHANHRVHTMSSA [T40H]	-0.146 ± 0.069
KILMCYEHETERINMYCELCRRPVCHLCKLGGNHANHRVTTMSSA [P6Y]	-0.228 ± 0.067
KILMCPEHETERINMYCEGCRRPVCHLCKLGGNHANHRVTTMSSA [L19G]	0.068 ± 0.047
KILMCNEHETERINMYCELCRRPVCHLCKLGGNHANHRVTTMSSA [P6N]	-0.139 ± 0.1
KILMCPEHETERINMYCELCRRDVCHLCKLGGNHANHRVTTMSSA [P23D]	0.037 ± 0.076
KILMCPEHETERINMYCELCRRPVCHLCKLGGNHANHTVTTMSSA [R38T]	0.075 ± 0.062
VILMCPEHETERINMYCELCRRPVCHLCKLGGNHANHRVTTMSSA [K1V]	-0.243 ± 0.078
KILMCPEHETERINMYCELCRRPVCHLCKLGGNHANHRVTHMSSA [T41H]	-0.526 ± 0.18
KILMCPEHETERINMYCELCSRPVCHLCKLGGNHANHRVTTMSSA [R21S]	-0.002 ± 0.051
